PMC3585378 (PLoS ONE, 2013)

Assays:
GST-ubiquitin = target: T1, GST-ubiquitin (UniProt P0CG48 1-76); experiment: pull-down; conditions: both partners purified
T1 construct: also called GST-tagged ubiquitin

His6-ubiquitin = His6-ubiquitin (UniProt P0CG48 1-76); experiment: pull-down; conditions: both partners purified

Binder | binding result (GST-ubiquitin) | binding result (His6-ubiquitin)
His6-OspG (natural protein, source: E. coli BL21 (DE3), purified (Ni-NTA)) MKITSTIIQTPFPFENNNSHAGIVTEPILGKLIGQGSTAEIFEDVNDSSALYKKYDLIGNQYNEILEMAWQESELFNAFYGDEASVVIQYGGDVYLRMLRVPGTPLSDIDTADIPDNIESLYLQLICKLNELSIIHYDLNTGNMLYDKESESLFPIDFRNIYAEYYAATKKDKEIIDRRLQMRTNDFYSLLNRKYL | binds | 
GST-tagged OspG protein (GST-OspG) (natural protein, source: E. coli BL21 (DE3), purified (glutathione-Sepharose)) MKITSTIIQTPFPFENNNSHAGIVTEPILGKLIGQGSTAEIFEDVNDSSALYKKYDLIGNQYNEILEMAWQESELFNAFYGDEASVVIQYGGDVYLRMLRVPGTPLSDIDTADIPDNIESLYLQLICKLNELSIIHYDLNTGNMLYDKESESLFPIDFRNIYAEYYAATKKDKEIIDRRLQMRTNDFYSLLNRKYL |  | binds
